Data on one molecule can be found in PMC10035497, “Structures of Cancer Antigen Mesothelin and Its Complexes with Therapeutic Antibodies” (Cancer Research Communications, 2023).

The target of the assay is T1, C-terminal shedding-resistant peptide of MSLN (residues 582-598) (human, UniProt Q13421-3).
T1 construct: Mesothelin, human, 17-residue peptide I582 to S598, holds most of the major sheddase cleavage sites; numbers count on: the 622-residue precursor, isoform Q13421-3; also called C-terminal peptide; 17-residue peptide; source: synthetic peptide (GenScript)
T1 chain: IPNGYLVLDLSMQEALS
Put plainly: crystal structure; synthetic peptide 582-598 mixed with Fab(15B6) at a molar ratio of 3:1 in 20 mmol/L Tris, 100 mmol/L NaCl, pH 7.5, overnight at 4°C; 1.74 Å. As to conditions: both partners purified.

B1: Fab fragment of mAb 15B6 (Fab, V domains shown)
VH: EVQLQQSGPVLVKPGASVKISCKASGYSFTGYYMHWVRQSNGKSLEWIGRINPYTGVPSYKHNFKDKASLTVDKSSSTAYMELHSLTSEDSAVYYCARELGGYWGQGTTLTVSS
VL: QAVVTQESALTTSPGETVTLTCRSSTGAVTTGNYPNWVQEKPDHLFTGLIAGTNNRAPGVPARFSGSLIGDKAALTITGAQTEDEAIYFCALWFSSHWVFGGGTKLTVL
notes: heavy chain of the Fab in PDB 7U8C (214 residues modelled); mouse IgG2b; light chain of the Fab in PDB 7U8C (213 residues modelled); mouse lambda; mouse isotype IgG2b lambda; raised against the peptide I582-S598; also called Fab(15B6); Fab of Mab 15B6; source: mAb 15B6 obtained from GenScript, digested with immobilised papain, Fc removed on Protein A
As to B1, the binding result is recorded as “binds”.
